Publication PMC2935574 (The Journal of Cell Biology, 2010)
Where “and” joins values, the source holds several entries; their conditions need not be identical. Equal entries are not always repeated.

Legend:
[1] = molecular target: fluorescein-labeled synthetic peptides encompassing residues 205–217 or 202–219 of NSL1; test: fluorescence polarisation
[2] = molecular target: T1, NDC80 complex (four-subunit NDC80C) (human, UniProt O14777 1-642; Q9BZD4 1-464; Q8NBT2 1-197; Q9HBM1 1-224); test: SEC
[3] = molecular target: T1, NDC80 complex (four-subunit NDC80C); test: ITC
[4] = molecular target: T2, KNL1^2106–2316 (C-terminal region of KNL1) (human, UniProt Q8NG31-2 2106-2316); test: ITC
T2 sequence (looked up): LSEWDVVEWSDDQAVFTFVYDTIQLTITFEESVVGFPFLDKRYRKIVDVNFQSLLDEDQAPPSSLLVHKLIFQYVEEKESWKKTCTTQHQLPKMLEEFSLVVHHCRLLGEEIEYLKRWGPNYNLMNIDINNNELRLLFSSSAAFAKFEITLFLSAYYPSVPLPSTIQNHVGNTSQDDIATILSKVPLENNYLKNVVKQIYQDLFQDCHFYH

T1 sequence (O14777 whole entry, chain 1 of 4): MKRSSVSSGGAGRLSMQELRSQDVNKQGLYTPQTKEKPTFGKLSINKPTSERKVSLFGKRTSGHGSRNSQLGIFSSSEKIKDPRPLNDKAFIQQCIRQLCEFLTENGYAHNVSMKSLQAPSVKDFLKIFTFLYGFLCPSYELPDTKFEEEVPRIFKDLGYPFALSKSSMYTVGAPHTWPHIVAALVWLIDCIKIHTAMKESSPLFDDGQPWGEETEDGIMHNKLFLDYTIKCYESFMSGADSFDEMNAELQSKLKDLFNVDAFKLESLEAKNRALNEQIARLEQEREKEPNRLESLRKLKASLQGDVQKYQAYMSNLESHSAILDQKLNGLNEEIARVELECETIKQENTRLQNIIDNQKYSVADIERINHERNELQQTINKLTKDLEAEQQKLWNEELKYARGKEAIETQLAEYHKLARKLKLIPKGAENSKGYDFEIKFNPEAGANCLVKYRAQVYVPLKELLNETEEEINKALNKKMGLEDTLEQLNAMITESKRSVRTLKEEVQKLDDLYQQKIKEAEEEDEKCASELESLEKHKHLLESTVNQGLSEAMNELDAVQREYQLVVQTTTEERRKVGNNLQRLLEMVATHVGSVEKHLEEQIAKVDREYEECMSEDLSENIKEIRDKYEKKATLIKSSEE
T1 sequence (Q9BZD4 whole entry, chain 2 of 4): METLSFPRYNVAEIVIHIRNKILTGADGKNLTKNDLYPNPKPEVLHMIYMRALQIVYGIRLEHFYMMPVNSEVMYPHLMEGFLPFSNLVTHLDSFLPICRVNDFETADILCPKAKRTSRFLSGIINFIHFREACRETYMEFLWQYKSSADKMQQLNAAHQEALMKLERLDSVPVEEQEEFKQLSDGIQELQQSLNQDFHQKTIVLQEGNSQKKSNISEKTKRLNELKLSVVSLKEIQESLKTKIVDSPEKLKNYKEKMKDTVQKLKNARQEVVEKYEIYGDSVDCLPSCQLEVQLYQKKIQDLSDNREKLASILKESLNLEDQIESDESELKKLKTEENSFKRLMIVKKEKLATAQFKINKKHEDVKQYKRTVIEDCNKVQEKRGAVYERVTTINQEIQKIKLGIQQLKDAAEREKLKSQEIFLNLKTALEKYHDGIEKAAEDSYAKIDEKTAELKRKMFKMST
T1 sequence (Q8NBT2 whole entry, chain 3 of 4): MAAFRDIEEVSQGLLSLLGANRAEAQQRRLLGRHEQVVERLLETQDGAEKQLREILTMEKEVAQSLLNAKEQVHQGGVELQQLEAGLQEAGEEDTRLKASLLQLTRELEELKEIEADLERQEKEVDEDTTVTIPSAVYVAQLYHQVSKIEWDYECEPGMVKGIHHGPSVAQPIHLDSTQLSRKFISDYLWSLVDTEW
T1 sequence (Q9HBM1 whole entry, chain 4 of 4): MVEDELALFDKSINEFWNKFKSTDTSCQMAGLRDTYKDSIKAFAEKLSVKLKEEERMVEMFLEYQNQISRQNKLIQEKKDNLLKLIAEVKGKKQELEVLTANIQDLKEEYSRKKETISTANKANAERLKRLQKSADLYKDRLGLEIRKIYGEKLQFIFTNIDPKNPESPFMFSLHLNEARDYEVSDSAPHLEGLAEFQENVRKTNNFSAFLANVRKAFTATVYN

HP1^110–191 (chromoshadow domain of HP1-α) (from UniProt P45973 110-191) (domain or fragment)
Kd [1]: 400 to 500 nM

B1: MIS12C^NSL1-227 (MIS12 complex with a more extensive C-terminal deletion of NSL1) (complex, human)
chain 1: MSVDPMTYEAQFFGFTPQTCMLRIYIAFQDYLFEVMQAVEQVILKKLDGIPDCDISPVQIRKCTEKFLCFMKGHFDNLFSKMEQLFLQLILRIPSNILLPEDKCKETPYSEEDFQHLQKEIEQLQEKYKTELCTKQALLAELEEQKIVQAKLKQTLTFFDELHNVGRDHGTSDFRESLVSLVQNSRKLQNIRDNVEKESKRLKIS
chain 2: MAEASSANLGSGCEEKRHEGSSSESVPPGTTISRVKLLDTMVDTFLQKLVAAGSYQRFTDCYKCFYQLQPAMTQQIYDKFIAQLQTSIREEISDIKEEGNLEAVLNALDKIVEEGKVRKEPAWRPSGIPEKDLHSVMAPYFLQQRDTLRRHVQKQEAENQQLADAVLAGRRQVEELQLQVQAQQQAWQALHREQRELVAVLREPE
chain 3: MTSVTRSEIIDEKGPVMSKTHDHQLESSLSPVEVFAKTSASLEMNQGVSEERIHLGSSPKKGGNCDLSHQERLQSKSLHLSPQEQSASYQDRRQSWRRASMKETNRRKSLHPIHQGITELSRSISVDLAESKRLGCLLLSSFQFSIQKLEPFLRDTKGFSLESFRAKASSLSEELKHFADGLETDGTLQKCFEDSNGKASDFSLEASVAEMKEYITKFSLERQTWDQLLLHYQQEAKEILSRGSTEAKITEVKVEPMTYLGSSQNEVLNTKPDYQKILQNQSKVFDCMELVMDELQGSVKQLQAFMDESTQCFQKVSVQLGKRSMQQLDPSPARKLLKLQLQNPPAIHGSGSGSCQ
chain 4: MAGSPELVVLDPPWDKELAAGTESQALVSATPREDFRVRCTSKRAVTEMLQLCGRFVQKLGDALPEEIREPALRDAQWTFESAVQENISINGQAWQEASDNCFMDSDIKVLEDQFDEIIVDIATKRKQYPRKILECVIKTIKAKQEILKQYHPVVHPLDLKYDPDPAPHMENLKCRGETVAKEISEAMKSLPALIEQGEGFSQVLRMQPVIHLQRIHQEVFSSCHRK
binding result [2]: binds

B2: MIS12C^NSL1-258 (MIS12 complex with NSL1 residues 1–258) (complex, human)
chain 1: B1 chain 1
chain 2: B1 chain 2
chain 3: B1 chain 3
chain 4: MAGSPELVVLDPPWDKELAAGTESQALVSATPREDFRVRCTSKRAVTEMLQLCGRFVQKLGDALPEEIREPALRDAQWTFESAVQENISINGQAWQEASDNCFMDSDIKVLEDQFDEIIVDIATKRKQYPRKILECVIKTIKAKQEILKQYHPVVHPLDLKYDPDPAPHMENLKCRGETVAKEISEAMKSLPALIEQGEGFSQVLRMQPVIHLQRIHQEVFSSCHRKPDAKPENFITQIETTPTETASRKTSDMVLKR
Kd [3]: ~10 nM

B3: MIS12C–KNL1^2106–2316 (five-subunit complex) (complex, human)
chain 1: B1 chain 1
chain 2: B1 chain 2
chain 3: B1 chain 3
chain 4: MAGSPELVVLDPPWDKELAAGTESQALVSATPREDFRVRCTSKRAVTEMLQLCGRFVQKLGDALPEEIREPALRDAQWTFESAVQENISINGQAWQEASDNCFMDSDIKVLEDQFDEIIVDIATKRKQYPRKILECVIKTIKAKQEILKQYHPVVHPLDLKYDPDPAPHMENLKCRGETVAKEISEAMKSLPALIEQGEGFSQVLRMQPVIHLQRIHQEVFSSCHRKPDAKPENFITQIETTPTETASRKTSDMVLKRKQTKDCPQRKWYPLRPKKINLDT
chain 5: T2 sequence (looked up)
Kd [3]: 4 nM

B4: NSL1^227–281 (C-terminal tail of NSL1) (domain or fragment, human, UniProt Q96IY1 227-281, looked up)
chain: KPDAKPENFITQIETTPTETASRKTSDMVLKRKQTKDCPQRKWYPLRPKKINLDT
Kd [4]: ~63 nM and ~130 nM | stoichiometry N [4]: 1
